Assay results: patent publication US12617863 (CCOA THERAPEUTICS, dated 2026)
Numbering of substitutions follows the chain as printed. Each block holds one binder with its values, some of them ahead of it.

Legend:
[1] = biological target: T1, human platelet glycoprotein I(b)α (GPIbα) on human platelets (human, UniProt P07359 17-652); assay: flow cytometry on washed platelets, 2.5-5 µg/mL, FITC anti-human-Fab detection
T1 construct: whole, on cells; also called human GPIbα
Experimental: (§1) Specificity. Human and mouse platelet-rich plasma (PRP) was prepared by centrifugation at 300 g for 7 min, and was washed by transferring 200 µL PRP into 10 mL PBS followed with 800 g centrifugation for 10 min. The supernatant was then removed and platelets were re-suspended in 200 µL PBS. Washed platelets (10 µL) were incubated with the different antibodies (2.5-5 µg/mL) in a 200 µL system at room temperature for 30 min, and detected by FITC labeled anti-human-Fab antibody. These eight selected humanized Fabs H001-H008, the scFv and the chimeric protein all bound to both human and wild-type mouse platelets, but not GPIbα deficient mouse platelets, indicating the specificity of the humanized Fabs to platelet GPIbα (FIGS. 4 and 19).

[2] = biological target: T2, mouse platelet glycoprotein I(b)α (GPIbα) on wild-type mouse platelets (mouse, UniProt O35930 17-734); assay: flow cytometry, washed wild-type mouse platelets, Fab 5 µg/mL, FITC anti-human-Fab detection
T2 construct: whole, on cells; also called mouse GPIbα
T2 sequence (looked up): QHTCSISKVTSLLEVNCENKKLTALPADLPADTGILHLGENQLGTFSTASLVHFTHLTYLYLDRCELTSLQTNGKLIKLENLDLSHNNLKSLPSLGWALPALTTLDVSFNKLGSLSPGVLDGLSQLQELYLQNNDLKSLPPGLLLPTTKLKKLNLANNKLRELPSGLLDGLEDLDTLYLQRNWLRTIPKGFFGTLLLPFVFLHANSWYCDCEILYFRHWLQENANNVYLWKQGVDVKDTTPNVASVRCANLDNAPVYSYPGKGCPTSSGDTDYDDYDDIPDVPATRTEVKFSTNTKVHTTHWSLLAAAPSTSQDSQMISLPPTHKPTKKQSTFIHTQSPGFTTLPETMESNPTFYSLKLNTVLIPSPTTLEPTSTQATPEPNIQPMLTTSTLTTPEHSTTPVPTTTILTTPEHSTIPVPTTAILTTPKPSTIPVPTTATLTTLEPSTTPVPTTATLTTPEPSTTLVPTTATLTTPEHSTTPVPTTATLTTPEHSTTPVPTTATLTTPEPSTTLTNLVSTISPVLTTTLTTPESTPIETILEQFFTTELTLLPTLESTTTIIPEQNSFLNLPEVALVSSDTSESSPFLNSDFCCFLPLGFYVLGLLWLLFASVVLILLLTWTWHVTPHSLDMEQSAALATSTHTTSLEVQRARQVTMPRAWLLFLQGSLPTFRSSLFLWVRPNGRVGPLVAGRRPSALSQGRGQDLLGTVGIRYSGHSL
Experimental: as §1

[3] = biological target: T3, dog platelet glycoprotein I(b)α (GPIbα) on dog platelets (dog, UniProt Q28256 17-677); assay: flow cytometry, dog platelets from PRP, FITC anti-human kappa chain detection
T3 construct: whole, on cells; also called dog GPIbα
T3 sequence (looked up): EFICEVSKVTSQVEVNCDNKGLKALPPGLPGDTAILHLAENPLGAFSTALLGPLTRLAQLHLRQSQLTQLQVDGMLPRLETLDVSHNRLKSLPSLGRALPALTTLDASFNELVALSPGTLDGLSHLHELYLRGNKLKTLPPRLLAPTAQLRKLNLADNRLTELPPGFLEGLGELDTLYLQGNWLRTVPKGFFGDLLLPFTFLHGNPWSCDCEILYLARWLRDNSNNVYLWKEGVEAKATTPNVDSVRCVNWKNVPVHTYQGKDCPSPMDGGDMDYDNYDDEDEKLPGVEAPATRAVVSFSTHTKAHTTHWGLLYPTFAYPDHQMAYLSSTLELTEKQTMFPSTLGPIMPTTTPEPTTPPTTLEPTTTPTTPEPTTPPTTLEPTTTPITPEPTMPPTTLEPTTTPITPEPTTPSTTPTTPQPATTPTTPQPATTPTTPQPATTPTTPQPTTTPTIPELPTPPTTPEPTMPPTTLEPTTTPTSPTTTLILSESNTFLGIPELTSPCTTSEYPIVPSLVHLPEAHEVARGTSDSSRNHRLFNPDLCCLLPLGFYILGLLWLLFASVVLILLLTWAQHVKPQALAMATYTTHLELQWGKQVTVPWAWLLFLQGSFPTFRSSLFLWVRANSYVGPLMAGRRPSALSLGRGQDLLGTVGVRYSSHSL
Experimental: (§2) Platelets (2×10^5) from mouse, dog, human, rat and rabbit PRP were transferred into 200 µL PBS containing a serial concentration of the Fabs H001 or H002 at 50, 16.7, 5.6, 1.8, 0.6, 0.2 nM (for mouse and dog), at 200, 67, 22, 7.4, 2.5, 0.8, 0.3, 0.1 nM (for human and rat) and at 500, 100, 20, 4, 0.8 nM (for rabbit). After a 30 min incubation, a detection antibody (FITC-labeled anti-human Kappa chain, 1:200) was added and incubated in darkness for 15 min. Flow cytometry was performed using the BD LSR Fortessa™ X-20. H001 and H002 also bound to rat, dog and rabbit platelets (FIG. 5).

[4] = biological target: T1, human platelet glycoprotein I(b)α …; assay: flow cytometry, human platelets from PRP, FITC anti-human kappa chain detection
Experimental: as §2

[5] = biological target: T4, recombinant hexa-histidine tagged GPIbα; assay: SPR steady-state response against H001 concentration, His-tagged GPIbα immobilised
T4 construct: Held on a Ni-NTA SPR sensor by its hexa-histidine tag; also called recombinant GPIbα; immobilized GPIbα
Experimental: (§3) The biosensors were rinsed with copious amounts of anhydrous ethanol followed by 16 hour incubation in a solution of 1 mM mercaptopropionic acid in dimethylformamide. Following the incubation, SPR biosensors were rinsed with copious amounts of dimethylformamide followed by anhydrous ethanol and finally ddH₂O. The biosensors were then incubated in 40 mM 1-Ethyl-3-(3-dimethylaminopropyl) carbodiimide and 20 mM N-Hydroxysuccinimide dissolved in ddH₂O for 1 hour. Sensors were then rinsed with copious amounts of ddH₂O and then incubated with 100 mM Nα,Nα-Bis(carboxymethyl)-L-lysine hydrate for 4 hour. Following the incubation, the biosensing surfaces were rinsed with ddH2O. The final step before SPR experiments was to expose the functionalized biosensing surfaces with 100 mM NiCl₂ for 1 hour.
(§4) The SPR experiments were performed on a Biosensing Instrument 4000 SPR. The functionalized biosensors were loaded onto the instrument and the biosensor was equilibrated with running buffer (10 mM tris(hydroxymethyl) aminomethane, 140 mM NaCl, 20 mM Imidazole pH=7.4) at a flow rate of 40 μL/min. For binding measurements 25 μL of 500 nM hexa-histidine tagged GPIbα was injected over the biosensing surface immobilizing the GPIbα to the SPR sensor surface. […] The resulting data was analyzed using the instrument included SPR analysis software. […]

[6] = biological target: T4, recombinant hexa-histidine tagged GPIbα; assay: SPR, size of shifts against concentration, one site binding model
Experimental: The SPR experiments were performed on a Biosensing Instrument 4000 SPR. The functionalized biosensors were loaded onto the instrument and the biosensor was equilibrated with running buffer (10 mM tris(hydroxymethyl) aminomethane, 140 mM NaCl, 20 mM Imidazole pH=7.4) at a flow rate of 40 μL/min. For binding measurements 25 μL of 500 nM hexa-histidine tagged GPIbα was injected over the biosensing surface immobilizing the GPIbα to the SPR sensor surface. The baseline was allowed to equilibrate followed by injection of 25 μL of the desired concentration of ligand (either Fab H001 or control). Biosensing surfaces were regenerated between ligand injections by injection of 100 μL of 500 mM imidazole in running buffer, followed by 100 μL of 100 mM NiCl_2. The resulting data was analyzed using the instrument included SPR analysis software.
GPIbα immobilized SPR biosensors were exposed to 500, 100, 50 and 10 nM of Fab H001 antibody and 100 nM control antibody (PSI E1, an antibody against GPIIbIIIa). […] In contrast the Fab H001 antibody clearly bound GPIbα producing clear SPR shifts with only partial dissociation after the end of the injection (FIG. 7A).

[7] = biological target: T4, recombinant hexa-histidine tagged GPIbα; assay: SPR, His-tagged GPIbα held on Ni-NTA sensor, kinetics binding model
Experimental: as §3, §4

[8] = biological target: T5, rat platelet glycoprotein I(b)α (GPIbα) on rat platelets (rat); assay: flow cytometry, rat platelets from PRP, FITC anti-human kappa chain detection
T5 construct: whole, on cells; also called rat GPIbα
Experimental: as §2

[9] = biological target: T2, mouse platelet glycoprotein I(b)α …; assay: flow cytometry, mouse platelets from PRP, FITC anti-human kappa chain detection
Experimental: as §2

T4 sequence (P07359 17-652): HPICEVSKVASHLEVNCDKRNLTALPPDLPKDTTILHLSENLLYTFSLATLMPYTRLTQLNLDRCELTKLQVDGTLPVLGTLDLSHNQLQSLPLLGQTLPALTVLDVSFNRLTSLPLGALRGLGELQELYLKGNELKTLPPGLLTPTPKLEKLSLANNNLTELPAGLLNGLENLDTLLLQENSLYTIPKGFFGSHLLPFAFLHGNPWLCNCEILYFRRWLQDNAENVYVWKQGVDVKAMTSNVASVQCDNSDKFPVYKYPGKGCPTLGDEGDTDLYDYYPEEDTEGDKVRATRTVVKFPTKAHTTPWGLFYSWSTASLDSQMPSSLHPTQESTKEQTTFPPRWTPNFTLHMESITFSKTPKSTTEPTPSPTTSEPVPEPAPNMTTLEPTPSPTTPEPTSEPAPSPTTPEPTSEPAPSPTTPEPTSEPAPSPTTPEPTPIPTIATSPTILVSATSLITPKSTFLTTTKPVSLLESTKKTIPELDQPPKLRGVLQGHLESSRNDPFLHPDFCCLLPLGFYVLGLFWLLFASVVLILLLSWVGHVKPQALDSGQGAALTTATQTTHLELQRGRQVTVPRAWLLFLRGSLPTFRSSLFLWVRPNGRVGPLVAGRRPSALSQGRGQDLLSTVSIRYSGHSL
T1 sequence (P07359 17-652): as above

EC50 (read off the curve) [3]: ~3 nM
EC50 (read off the curve) [4]: ~10 nM
EC50 (read off the curve) [5]: ~80 nM
Kd [6]: 8 nM
Kd [7]: 4.4 nM
koff [7]: 0.11 s⁻¹
binding result [2]: binds
EC50 (read off the curve) [8]: ~3 nM
B4: humanized Fab H001 (Fab, V domains shown)
VH: QVQLVESGGGLVKPGGSLRLSCAASGFTFSSFAMSWIRQAPGKGLEWVSSITSAGTPYYPDSVLGRFTISRDNAKNSLYLQMNSLRAEDTAVYYCARSRGYEDYFDYWGQGTLVTVSS
VL: DIQMTQSPSSLSASVGDRVTITCKSSQSLLNSRNQKNYLAWYQQKPGKAPKLLIYFTSTRESGVPSRFSGSGSGTDFTLTISSLQPEDFATYYCQQHYSSPWTFGQGTKVEIKR
notes: Fab with human IgG1 CH1 and human kappa constant region; also called Fab H001 antibody; VH1 + VL2

binding result [1]: binds
binding result [2]: binds
B6: humanized Fab H007 (Fab, V domains shown)
VH: B4 VH with L11V, K13Q, G16R, I37V, S49A, A74S, S77T
VL: B4 VL
notes: Fab with human IgG1 CH1 and human kappa constant region; also called VH4 + VL2

binding result [1]: binds
binding result [2]: binds
B8: humanized Fab H006 (Fab, V domains shown)
VH: B4 VH with L11V, K13Q, G16R, I37V, S49A, A74S, S77T
VL: DIVMTQSPDSLAVSLGERATINCKSSQSLLNSRNQKNYLAWYQQKPGQPPKLLIYFTSTRESGVPDRFSGSGSGTDFTLTISSLQAEDVAVYYCQQHYSSPWTFGGGTKLEIKR
notes: Fab with human IgG1 CH1 and human kappa constant region; also called VH4 + VL1

Second part, the binder before the results:

B1: humanized Fab H004 (Fab, V domains shown)
VH: B4 VH with Q1E, K13Q, I37V, A74S, S77T, R97K
VL: B4 VL
notes: Fab with human IgG1 CH1 and human kappa constant region; also called VH3 + VL2
binding result [1]: binds
binding result [2]: binds

B2: humanized Fab H003 (Fab, V domains shown)
VH: B4 VH with Q1E, I37V, L113T, S118R
VL: B8 VL
notes: Fab with human IgG1 CH1 and human kappa constant region; also called VH2 + VL1
binding result [1]: binds
binding result [2]: binds

B3: humanized Fab H005 (Fab, V domains shown)
VH: B4 VH with Q1E, K13Q, I37V, A74S, S77T, R97K
VL: DIVMTQSPLSLPVTPGEPASISCKSSQSLLNSRNQKNYLAWYLQKPGQSPQLLIYFTSTRESGVPDRFSGSGSGTDFTLKISRVEAEDVGVYYCQQHYSSPWTFGQGTKVEIKR
notes: Fab with human IgG1 CH1 and human kappa constant region; also called VH3 + VL3
binding result [1]: binds
binding result [2]: binds

B5: humanized Fab H008 (Fab, V domains shown)
VH: B4 VH with L11V, K13Q, G16R, I37V, S49A, A74S, S77T
VL: B3 VL
notes: Fab with human IgG1 CH1 and human kappa constant region; also called VH4 + VL3
binding result [1]: binds
binding result [2]: binds

B7: humanized Fab H002 (Fab, V domains shown)
VH: B4 VH
VL: B3 VL
notes: Fab with human IgG1 CH1 and human kappa constant region; also called Fab H002 antibody; VH1 + VL3
EC50 (read off the curve) [3]: ~2 nM
binding result [4]: binds
EC50 (read off the curve) [8]: ~3 nM
binding result [9]: binds
